Measured values as given in article PMC8476856.

Target: recombinant human α1A/βIII tubulin (human) (UniProt Q71U36)
Assay: in vitro microtubule dynamics assay

recombinant human α1A/βIII tubulin (from UniProt Q71U36 1-451; Q13509 1-450) (complex)
critical concentration: 0.94 µM | koff: 3.2 s⁻¹ | kon: 3.48e+06 M⁻¹ s⁻¹
